From paper PMC3008307 (Virology, 2010)

Assays:
6-His-cdk8 = 6-His-cdk8 (human, UniProt P49336 1-464); assay: pull-down
6-His-cdk3 = 6-His-cdk3 (human, UniProt Q00526 1-305); assay: pull-down
6-His-cdk3, sequence (Q00526 whole entry): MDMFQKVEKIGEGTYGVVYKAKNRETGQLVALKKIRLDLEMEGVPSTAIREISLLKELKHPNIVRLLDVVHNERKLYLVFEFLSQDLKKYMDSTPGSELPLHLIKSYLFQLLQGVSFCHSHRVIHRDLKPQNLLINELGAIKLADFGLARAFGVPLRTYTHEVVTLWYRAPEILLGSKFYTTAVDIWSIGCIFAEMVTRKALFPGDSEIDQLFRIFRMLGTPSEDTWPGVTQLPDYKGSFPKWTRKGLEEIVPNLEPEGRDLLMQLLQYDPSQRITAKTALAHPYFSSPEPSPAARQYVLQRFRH

6-His-cdk8, sequence (P49336 whole entry): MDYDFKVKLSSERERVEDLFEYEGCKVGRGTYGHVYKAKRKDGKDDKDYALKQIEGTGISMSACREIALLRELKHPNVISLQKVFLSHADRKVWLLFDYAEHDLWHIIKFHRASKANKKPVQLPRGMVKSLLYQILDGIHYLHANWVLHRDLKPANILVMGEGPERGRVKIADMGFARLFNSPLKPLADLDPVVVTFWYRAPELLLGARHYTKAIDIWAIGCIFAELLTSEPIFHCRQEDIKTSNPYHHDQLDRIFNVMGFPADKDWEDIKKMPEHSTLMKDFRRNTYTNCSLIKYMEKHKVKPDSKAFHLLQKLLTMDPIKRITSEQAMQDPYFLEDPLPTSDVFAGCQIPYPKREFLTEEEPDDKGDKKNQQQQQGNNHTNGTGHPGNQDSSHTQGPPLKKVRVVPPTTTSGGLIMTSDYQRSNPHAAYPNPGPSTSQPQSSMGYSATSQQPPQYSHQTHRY

B1: GST-rv-cyclin (natural protein)
chain: MDIPVEFLTAQEPLSYGHIPPVYWKELLNWIDRILTHNQATPNTWEATHMVLLKLHGTLSFSNPAQLPLVAAACLQIAAKHTEAHSRLADPDYITMLGDGVYTKPSLLLTETMALFIVGGHVGAYTLAACDWLLGSLPFSQAENDLLHPYMYHYIKLSYRHRTPDYHSSPALRAAVVIAAAVKGADLLEMNMLFIMMYHLTHISTASLSLGLTHFTAALQRQINLDFAEAEQREAAERRALLEREREQQLQEARERLDDVMAVLEAEVAITITTATEGTDAEDTSEVDVINVVDPIG
What does the source list for B1?
binding result (6-His-cdk8): binds; binding result (6-His-cdk3): binds

B2: GST-cyclin C (natural protein, human, UniProt P24863 1-283, looked up)
chain: MAGNFWQSSHYLQWILDKQDLLKERQKDLKFLSEEEYWKLQIFFTNVIQALGEHLKLRQQVIATATVYFKRFYARYSLKSIDPVLMAPTCVFLASKVEEFGVVSNTRLIAAATSVLKTRFSYAFPKEFPYRMNHILECEFYLLELMDCCLIVYHPYRPLLQYVQDMGQEDMLLPLAWRIVNDTYRTDLCLLYPPFMIALACLHVACVVQQKDARQWFAELSVDMEKILEIIRVILKLYEQWKNFDERKEMATILSKMPKPKPPPNSEGEQGPNGSQNSSYSQS
Which results are given for B2?
binding result (6-His-cdk8): binds; binding result (6-His-cdk3): binds
